These results are taken from paper PMC1853097, “The high-resolution NMR structure of the R21A Spc-SH3:P41 complex: Understanding the determinants of binding affinity by comparison with Abl-SH3” (BMC Structural Biology, 2007).

Where two headings read alike, the source gives them in different places.

Assay [1] addresses SH3 domain of the Abl tyrosine kinase (Abl-SH3). Particulars: cited from earlier work; for Kb (binding constant): ITC, 25°C. The source says:
The affinities are much lower than that of the Abl-SH3 domain for p41 under similar conditions, which is in the range of 2 × 10^5 – 4 × 10^5 M^-1 [16]. In all cases the binding is driven by a large and favourable enthalpy change, partially compensated by an unfavourable entropy change. A similar thermodynamic signature is usually observed for the binding of proline-rich peptides to other SH3 domains. The very small variation of the binding enthalpies with the ionization enthalpy of the buffers ... || We have performed a global analysis of the ΔCpapp MathType@MTEF@5@5@+=feaafiart1ev1aaatCvAUfKttLearuWrP9MDH5MBPbIqV92AaeXatLxBI9gBaebbnrfifHhDYfgasaacH8akY=wiFfYdH8Gipec8Eeeu0xXdbba9frFj0=OqFfea0dXdd9vqai=hGuQ8kuc9pgc9s8qqaq=dirpe0xb9q8qiLsFr0=vr0=vr0dc8meaabaqaciaacaGaaeqabaqabeGadaaakeaacqqHuoarcqWGdbWqdaqhaaWcbaGaemiCaahabaGaemyyaeMaemiCaaNaemiCaahaaaaa@34D4@ curves using a simple model in which the protein/ligand binding and protein unfolding equilibria are coupled (Figure 2). This analysis is, with minor modifications, similar to that used previously for the analysis of the interaction be ...

Assay [2] has as its target WT α-spectrin SH3 domain (WT Spc-SH3). In words: ITC titration of WT Spc-SH3 with p41. The format is binding, chicken. Details: unit not given here. Particulars: 25°C, global fit of three isotherms, error = 95% confidence interval. The protocol:
(§1) The binding between the p41 decapeptide and the R21A Spc-SH3 mutant domain was studied by a combination of isothermal titration calorimetry (ITC) and differential scanning calorimetry (DSC) experiments. ITC experiments were performed at 25°C at both pH 3.0 and 7.0, using several buffers at a concentration of 20 mM. Similar ITC experiments were made with the WT Spc-SH3 domain for comparison. […] The contribution of protonation/deprotonation processes to the binding enthalpy change, was estimated using three buffers differing in their ionization heats (Figure 1B).
(§2) ITC experiments were performed at 25°C in a high-precision MCS titration calorimeter (Microcal Inc., Northampton, MA). Prior to the experiments the protein was extensively dialyzed at 4°C against the appropriate buffer. The solutions of p41 peptide were prepared by dissolving the lyophilized material directly into the buffer and subsequently adjusting the pH of the solution. All buffers and solutions were filtered and degassed and equilibrated to the working temperature prior to each experiment. […] The binding constant, Kb, and the enthalpy change of binding, ΔHb, were determined by global fitting of the three binding isotherms measured in different buffers, using a model of binding to a single set of identical sites, according to the equation: […]
On the technique in general: ITC needs no label: the signal is the heat of the interaction.

The subject of assay [3] is WT α-spectrin SH3 domain (WT Spc-SH3). Particulars: Spc-SH3 relative to Abl-SH3; cited from earlier work. The source says: Background SH3 domains are small protein modules of 60–85 amino acids that bind to short proline-rich sequences with moderate-to-low affinity and specificity. Interactions with SH3 domains play a crucial role in regulation of many cellular processes (some are related to cancer and AIDS) and have thus been interesting targets in drug design. The decapeptide APSYSPPPPP (p41) binds with relatively high affinity to the SH3 domain of the Abl tyrosine kinase (Abl-SH3), while it has a 100 times lower affinity for the α-spectrin SH3 domain (Spc-SH3). Results Here we present the high-resolution structu ... || Here we present the solution structure of the R21A mutant of the α-spectrin SH3 domain (Spc-SH3), both in its free form and bound to the decapeptide APSYSPPPPP (p41). We also show a complete thermodynamic characterization of the SH3-p41 interaction by calorimetric methods, together with an analysis of its effect upon the conformational dynamics of the SH3 domain using amide hydrogen-deuterium exchange (HX). The p41 peptide was initially designed as a high-affinity and high-specificity ligand for the Abl-SH3 domain [6] and the crystal structure of the complex was subsequently determined [[12] ...

The target of assay [4] is R21A mutant of the α-spectrin SH3 domain (R21A Spc-SH3). In words: ITC titration of R21A Spc-SH3 with p41. Format: binding, chicken. Particulars: 25°C, global fit of three isotherms, error = 95% confidence interval. The protocol: as §1, §2
Assay [5] deals with p41 decapeptide. In words: ITC (Microcal MCS). Particulars: 25 °C, added salt not given, 20 mM buffer only, Three buffers of different ionisation heat at each pH, each 20 mM. At pH 7.0: phosphate, hepes and imidazole (named in F); for Kb: scale: 10^3 M^-1.
Assay [6] has as its target p41 decapeptide. In words: ITC (quoted from reference 16, Palencia et al. 2004). Particulars: 25 °C (Table 1 title), not stated ('under similar conditions'), cited from earlier work; for Kb: scale: 10^3 M^-1.

On to “APSYSPPPPP [p41, synthetic decapeptide …, both acetylated and methylated in its termini]”, for which the Kb (binding constant) in assay [1] (pH 3.0) is 210000 M⁻¹; in assay [1] (pH 7.0), 323000 M⁻¹; in assay [2] (pH 3.0, 20 mM buffers), 5.8 ± 0.8 ×10^-3; in assay [2] (pH 7.0, 20 mM buffers) it was 5.2 ± 1.2 ×10^-3; in assay [4] (pH 3.0, 20 mM buffers), 18.2 ± 2.0 ×10^-3 M^-1; in assay [4] (pH 7.0, 20 mM buffers (phosphate, hepes, imidazole), single set of identical sites), 18.1 ± 1.9 ×10^-3 M^-1. Further, in assay [1] (under similar conditions), the “affinity of the Abl-SH3 domain for p41 (binding constant)” value is 200000 to 400000 M⁻¹. Moreover, the “times lower affinity for Spc-SH3 than for Abl-SH3” value in assay [3] is given as 100 times.

With “alpha-spectrin SH3 domain (Spc-SH3), wild type”, in the assay with p41 decapeptide [5] (pH 3.0), the p (protons per mole of ligand bound) was -0.07, the ΔGb was -5.14 kcal/mol and the Kb was 5.8. Besides, in the assay with p41 decapeptide [5] (pH 7.0), the p (protons per mole of ligand bound) amounted to 0.01, the ΔGb was -5.07 kcal/mol and the Kb came out at 5.2.

“alpha-spectrin SH3 domain (Spc-SH3), R21A mutant R21A”: in the assay with p41 decapeptide [5] (pH 3.0), the p (protons per mole of ligand bound) was -0.29, the ΔGb was -5.81 kcal/mol and the Kb was 18.2. Also, in the assay with p41 decapeptide [5] (pH 7.0), the p (protons per mole of ligand bound) was 0.06, the ΔGb was -5.81 kcal/mol and the Kb came out at 18.1.

Turning to “Abl tyrosine kinase SH3 domain (Abl-SH3)”, in the assay with p41 decapeptide [6] (pH 3.0), the ΔGb is -7.27 kcal/mol and the Kb was 210. Moreover, in the assay with p41 decapeptide [6] (pH 7.0), the p (protons per mole of ligand bound) was 0.1, the ΔGb is -7.5 kcal/mol and the Kb was 323.
